# Laboratory results as given in IntAct's records for PubMed 24325460.
# B1: Isocitrate dehydrogenase [NADP] (Bacillus subtilis), P39126 (parent)
# chain: MAQGEKITVSNGVLNVPNNPIIPFIEGDGTGPDIWNAASKVLEAAVEKAYKGEKKITWKEVYAGEKAYNKTGEWLPAETLDVIREYFIAIKGPLTTPVGGGIRSLNVALRQELDLFVCLRPVRYFTGVPSPVKRPEDTDMVIFRENTEDIYAGIEYAKGSEEVQKLISFLQNELNVNKIRFPETSGIGIKPVSEEGTSRLVRAAIDYAIEHGRKSVTLVHKGNIMKFTEGAFKNWGYELAEKEYGDKVFTWAQYDRIAEEQGKDAANKAQSEAEAAGKIIIKDSIADIFLQQILTRPNEFDVVATMNLNGDYISDALAAQVGGIGIAPGANINYETGHAIFEATHGTAPKYAGLDKVNPSSVILSGVLLLEHLGWNEAADLVIKSMEKTIASKVVTYDFARLMDGATEVKCSEFGEELIKNMD
# partner: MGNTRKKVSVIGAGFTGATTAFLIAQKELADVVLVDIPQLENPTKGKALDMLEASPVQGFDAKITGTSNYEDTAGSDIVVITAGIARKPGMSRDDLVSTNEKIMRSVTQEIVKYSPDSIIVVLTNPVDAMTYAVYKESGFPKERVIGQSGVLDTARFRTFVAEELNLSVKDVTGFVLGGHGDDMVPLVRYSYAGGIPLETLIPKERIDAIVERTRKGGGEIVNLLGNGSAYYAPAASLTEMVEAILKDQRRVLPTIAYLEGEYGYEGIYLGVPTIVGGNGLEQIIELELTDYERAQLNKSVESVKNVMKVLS
# Variants of: B1
# Conditions: with mdh_bacsu mdh
row,effect of a mutation on the interaction,Variant
1,increasing interaction,MAQGEKITVSNGVLNVPNNPIIPFIEGDGTGPDIWNAASKVLEAAVEKAYKGEKKITWKEVYAGEKAYNKTGEWLPAETLDVIREYFIAIKGPLTTPVGGGIRPLNVALRQELDLFVCLRPVRYFTGVPSPVKRPEDTDMVIFRENTEDIYAGIEYAKGSEEVQKLISFLQNELNVNKIRFPETSGIGIKPVSEEGTSRLVRAAIDYAIEHGRKSVTLVHKGNIMKFTEGAFKNWGYELAEKEYGDKVFTWAQYDRIAEEQGKDAANKAQSEAEAAGKIIIKDSIADIFLQQILTRPNEFDVVATMNLNGDYISDALAAQVGGIGIAPGANINYETGHAIFEATHGTAPKYAGLDKVNPSSVILSGVLLLEHLGWNEAADLVIKSMEKTIASKVVTYDFARLMDGATEVKCSEFGEELIKNMD [S104P]
